test: soluble on expression in E. coli; label from the status in PepcDB or PDB records

| Sequence | soluble on expression in E. coli |
| --- | --- |
| GSDLPIDPNEPTYCLCNQVSYGEMIGCDNDECPIEWFHFSCVGLNHKPKGKWYCPKCRGENE | soluble |
| GSEKRQHSSQDVHVVLKLWKSGFSLDNGELRSYQDPSNAQFLESIRRGEVPAELRRLAHGGQVNLDMEDHRDEDFVKPKGAFKAFTGEGQKLGSTAPQVLST | soluble |
| GSEPYSLTAQQSSLIREDKSNAKLWNEVLASLKDRPASGSPFQLFLSKVEETFQCICCQELVFRPITTVCQHNVCKDCLDRSFRAQVFSCPACRYDLGRSYAMQVNQPLQTVLNQLFPGYGNGR | soluble |
| GSFTRFDLAIDDKKTYFSIPELLKKAQKGECISRFRKSDFNGSFDLSDGITGGTTIYFGSKKSEAYLCFYEKNYEQAEKYNIPLEELGDWNRYELRLKNERAQVAIDALLKTKDLTLIAMQIINNYVRFVDADENITREHWKTSLFWSDFIGDVGRLPLYVKPQKDFYQKSRNWLRNSCAPTMKMVLEADEHLGKTDLSDMIAEAELADKHKKMLDVYMADVADMVV | not soluble |
| GSHGGSMKAANASSAEAYRVLSRAFRFDNEDQKLWWHSTAPMFAKMLETANYTTPCQYQYLITYKECVIPSLGCYPTNSAPRWLSILTRYGTPFELSLNCSNSIVRYTFEPINQHTGTDKDPFNTHAIWESLQHLLPLEKSIDLEWFRHFKHDLTLNSEESAFLAHNDRLVGGTIRTQNKLALDLKDGRFALKTYIYPALKAVVTGKTIHELVFGSVRRLAVREPRILPPLNMLEEYIRSRGSKSTASPRLVSCDLTSPAKSRIKIYLLEQMVSLEAMEDLWTLGGRRRDASTLEGLSLVRELWDLIQLSPGLKSYPAPYLPLGVIPDERLPLMANFTLHQNDPVPEPQVYFTTFGMNDMAVADALTTFFERRGWSEMARTYETTLKSYYPHADHDKLNYLHAYISFSYRDRTPYLSVYLQSFETGDWAVANLSESKVKCQDAACQPTALPPDLSKTGVYYSGLH | soluble |
| GSHHHHHHSSGLVPRGSFNELNAINENIRDDLSALLKSDFFKYFRLDLYKQCSFWDANDGLCLNRACSVDVVEDWDTLPEYWQPEILGSFNNDTMKEADDSDDECKFLDQLCQTSKKPVDIEDTINYCDVNDFNGKNAVLIDLTANPERFTGYGGKQAGQIWSTIYQDNCFTIGETGESLAKDAFYRLVSGFHASIGTHLSKEYLNTKTGKWEPNLDLFMARIGNFPDRVTNMYFNYAVVAKALWKIQPYLPEFSFCDLVNKEIKNKMDNVISQLDTKIFNEDLVFANDLSLTLKDEFRSRFKNVTKIMDCVQCDRCRLWGKIQTTGYATALKILFEINDADEFTKQHIVGKLTKYELIALLQTFGRLSESIESVNMFEKMYGKRLLER | soluble |
| GSHMASTPDKFNDGNLNIAYAKPTTQSSVDYNGDPNRAVDGNRNGNFNSGSVTHTRADNPSWWEVDLKKMDKVGLVKIYNRTDAETQRLSNFDVILYDNNRNEVAKKHVNNLSGESVSLDFKEKGARYIKVKLLTSGVPLSLAEVEVFRES | soluble |
| GSHMATEPKAGRPSDYMPEVADDICSLLSSGESLLKVCKRPGMPDKSTVFRWLAKHEDFRDKYAKATEARADSIFEEIFEIADNAIPDAAEVAKARLRVDTRKWALARMNPRKYGDKVTNELVGKDGGAIQIETSPMSTLFGK | soluble |
| GSHMGQNDLVKTLRMNYLFDFYQSLLTNKQRNYLELFYLEDYSLSEIADTFNVSRQAVYDNIRRTGDLVEDYEKKLELYQKFEQRREIYDEMKQHLSNPEQIQRYIQQLEDLE | soluble |
| GSHMKNSVSVDLPGSMKVLVSKSSNADGKYDLIATVDALELSGTSDKNNGSGVLEGVKADASKVKLTISDDLGQTTLEVFKSDGSTLVSKKVTSKDKSSTEEKFNEKGELSEKKITRADKSSTEEKFNEKGELSEKKITRADKSSTEEKFNEKGELSEKKITRADKSSTEEKFNEKGEVSEKIITRADGTRLEYTGIKSDGSGKAKEVLKGYVLEGTLTAEKTTLVVKEGTVTLSKNISKSGEVSVELNDTDSSAATKKTAAWNSGTSTLTITVNSKKTKDLVFTSSNTITVQQYDSNGTSLEGSAVEITKLDEIKNALK | soluble |
| GSHMLITASSSKEYLPDLLLFWQNYEYWITNIGLYKTKQRDLTRTPANLDTDTEECMFWMNYLQKDQSFQLMNFAMENLGALYFGSIGDISELYLRVEQYWDRRADKNHSVDGKYWDALIWSVFTMCIYYMPVEKLAEIFSVYPLHEYLGSNKRLNWEDGMQLVMCQNFARCSLFQLKQCDFMAHPDIRLVQAYLILATTTFPYDEPLLANSLLTQCIHTFKNFHVDDFRPLLNDDPVESIAKVTLGRIFYRLCGCDYLQSGPRKPIALHTEVSSLLQHAAYLQDLPNVDVYREENSTEVLYWKIISLDRDLDQYLNKSSKPPLKTLDAIRRELDIFQYKVDSLEEDFRSNNSRFQKFIALFQISTVSWKLFKMYLIYYDTADSLLKVIHYSKVIISLIVNNFHAKSEFFNRHPMVMQTITRVVSFISFYQIFVESAAVKQLLVDLTELTANLPTIFGSKLDKLVYLTERLSKLKLLWDKVQLLDSGDSFYHPVFKILQNDIKIIELKNDEMFSLIKGLGSLVPLNKLRQESLLEEEDENNTEPSDFRTIVEEFQSEYNISDILS | soluble |
| GSHMSGKARLHYPVTRQGEQVDHYFGQAVADPYRWLEDDRSPETEAWVKAQNAVTQDYLAQIPYRAAIKEKLAASWNYAKEGAPFREGRYHYFFKNDGLQNQNVLWRQQEGKPAEVFLDPNTLSPDGTTALDQLSFSRDGRILAYSLSLAGSDWREIHLMDVESKQPLETPLKDVKFSGISWLGNEGFFYSSYDKPDGSELSARTDQHKVYFHRLGTAQEDDRLVFGAIPAQHHRYVGATVTEDDRFLLISAANSTSGNRLYVKDLSQENAPLLTVQGDLDADVSLVDNKGSTLYLLTNRDAPNRRLVTVDAANPGPAHWRDLIPERQQVLTVHSGSGYLFAEYMVDATARVEQFDYEGKRVREVALPGLGSVSGFNGKHDDPALYFGFENYAQPPTLYRFEPKSGAISLYRASAAPFKPEDYVSEQRFYQSKDGTRVPLIISYRKGLKLDGSNPTILYGYGGFDVSLTPSFSVSVANWLDLGGVYAVANLRGGGEYGQAWHLAGTQQNKQNVFDDFIAAAEYLKAEGYTRTDRLAIRGGSNGGLLVGAVMTQRPDLMRVALPAVGVLDMLRYHTFTAGTGWAYDYGTSADSEAMFDYLKGYSPLHNVRPGVSYPSTMVTTADHNDRVVPAHSFKFAATLQADNAGPHPQLIRIETNAGHGAGTPVAKLIEQSADIYAFTLYEMGYRELPRQP | soluble |
| GSHMTREMRILILGLDGAGKTTILYRLQVGEVVTTIPTIGFNVETVTYKNLKFQVWDLGGLTSIRPYWRCYYSNTDAVIYVVDSCDRDRIGISKSELVAMLEEEELRKAILVVFANKQDMEQAMTSSEMANSLGLPALKDRKWQIFKTSATKGTGLDEAMEWLVETLKSRQ | soluble |
| GSHSMRYFYTAVSRPGRGEPHFIAVGYVDDTQFVRFDSDAASPRGEPRAPWVEQEGPEYWDRETQKYKRQAQTDRVSLRNLRGYYNQSEAGSHIIQRMYGCDVGPDGRLLRGYDQYAYDGKDYIALNEDLRSWTAADTAAQITQRKWEAAREAEQLRAYLEGLCVEWLRRYLKNGKETLQRAEHPKTHVTHHPVSDHEATLRCWALGFYPAEITLTWQWDGEDQTQDTELVETRPAGDGTFQKWAAVVVPSGEEQRYTCHVQHEGLPEPLTLRWEPSS | soluble |
| GSKKSRLWVDRSGTFKVDAEFIGCAKGKIHLHKANGVKIAVAADKLSNEDLAYVEKITGFSLEKFKAN | soluble |
| GSLSLIRKKGFYKQDVNKTAWELPKTYVSPTHVGSGAYGSVCSAIDKRSGEKVAIKKLSRPFQSEIFAKRAYRELLLLKHMQHENVIGLLDVFTPASSLRNFYDFYLVMPFMQTDLQKIMGMEFSEEKIQYLVYQMLKGLKYIHSAGVVHRDLKPGNLAVNEDCELKILDFGLARHADAEMTGYVVTRWYRAPEVILSWMHYNQTVDIWSVGCIMAEMLTGKTLFKGKDYLDQLTQILKVTGVPGTEFVQKLNDKAAKSYIQSLPQTPRKDFTQLFPRASPQAADLLEKMLELDVDKRLTAAQALTHPFFEPFRDPEEETEAQQPFDDSLEHEKLTVDEWKQHIYKEIVNFSPIARKDSRV | soluble |
| GSMENTDVFLGLHDFLERMRKPSAGDFVKSIKSFIVSFSNNAPDPEKDCAMVQEFFSKMEAAFRAHPLWSGCSEEELDSAGDGLEKYVMTKLFTRVFASNTEEVIADEKLFQKMSLVQQFISPENLDIQPTFQNESSWLLAQKELQKINMYKAPRDKLVCILNCCKVINNLLLNASIASNENAPGADEFLPVLIYVTIKANPPQLHSNLLYIQRYRRESKLVGEAAYFFTNILSAESFISNIDAKSISLDEAEFEKNMESARARISG | soluble |
| GSMPKPINVRVTTMDAELEFAIQPNTTGKQLFDQVVKTVGLREVWFFGLQYVDSKGYSTWLKLNKKVTQQDVKKENPLQFKFRAKFFPEDVSEELIQEITQRLFFLQVKEAILNDEIYCPPETAVLLASYAVQAKYGDYNKEIHKPGYLANDRLLPQRVLEQHKLTKEQWEERIQNWHEEHRGMLREDSMMEYLKIAQDLEMYGVNYFEIKNKKGTELWLGVDALGLNIYEHDDKLTPKIGFPWSEIRNISFNDKKFVIKPIDKKAPDFVFYAPRLRINKRILALCMGNHELYMRRRKPDTIEVQQMKAQARVDSSGRIVTD | soluble |
| GSPNSTAEPTVAARPQQIDALRTLIRLGSLHTPMVVRTAATLRLVDHILAGARTVKALAARTDTRPEALLRLIRHLVAIGLLEEDAPGEFVPTEVGELLADDHPAAQRAWHDLTQAVARADISFTRLPDAIRTGRPTYESIYGKPFYEDLAGRPDLRASFDSLLACDQDVAFDAPAAAYDWTNVRHVLDVGGGKGGFAAAIARRAPHVSATVLEMAGTVDTARSYLKDEGLSDRVDVVEGDFFEPLPRKADAIILSFVLLNWPDHDAVRILTRCAEALEPGGRILIHERDDLHENSFNEQFTELDLRMLVFLGGALRTREKWDGLAASAGLVVEEVRQLPSPTIPYDLSLLVLAPAATGA | soluble |
| GSRAQSSPAAPASLSAPEPASQARVLSSSETPARTLPFTTGLIYDSVMLKHQCSCGDNSRHPEHAGRIQSIWSRLQERGLRSQCECLRGRKASLEELQSVHSERHVLLYGTNPLSRLKLDNGKLAGLLAQRMFVMLPCGGVGVDTDTIWNELHSSNAARWAAGSVTDLAFKVASRELKNGFAVVRPPGHHADHSTAMGFCFFNSVAIACRQLQQQSKASKILIVDWDVHHGNGTQQTFYQDPSVLYISLHRHDDGNFFPGSGAVDEVGAGSGEGFNVNVAWAGGLDPPMGDPEYLAAFRIVVMPIAREFSPDLVLVSAGFDAAEGHPAPLGGYHVSAKCFGYMTQQLMNLAGGAVVLALEGGHDLTAICDASEACVAALLGNRVDPLSEEGWKQKPNLNAIRSLEAVIRVHSKYWGCMQRLAS | soluble |
| GSRRASVGSHEVEKSGLLNMTKIAQGGRKLRKNWGPSWVVLTGNSLVFYREPPPTAPSSGWGPAGSRPESSVDLRGAALAHGRHLSSRRNVLHIRTIPGHEFLLQSDHETELRAWHRALRTVIERLVRW | soluble |
| GSSGSSGGYFDAHALAMDYRSLGFRECLAEVARYLSIIEGLDASDPLRVRLVSHLNNYASQREASGPSSG | soluble |
| GSSMKASSGDQGSPPCFLRFPRPVRVVSGAEAELKCVVLGEPPPVVVWEKGGQQLAASERLSFPADGAEHGLLLTAALPTDAGVYVCRARNAAGEAYAAAAVTVLEPPA | soluble |
